The results in this text go back to patent US20220110851A1.

The target of experiment [1] is acetylcholine receptor on AchR-overexpressed TE671 cells. Briefly: cell-based or functional assay.
Experiment [2] deals with acetylcholine receptor protein. Put plainly: SPR, AchR on CM5 chip, positive control. A general note: Surface plasmon resonance follows binding to a sensor surface in real time, without labels.

In general, Kd refers to the equilibrium constant for the complex coming apart. A low value points to a tighter complex. As to Synake (peptide), the IC50 value for AchR (AchR inhibitory effect in TE671 cells) in experiment [1] stood at 75 µM. In addition, in experiment [2], the equilibrium dissociation constant (Kd) was 2300 µM. bungarotoxin had an IC50 value for AchR (AchR inhibitory effect in TE671 cells) in experiment [1] of 0.0075 µM.
